Measurements from publication PMC4449276.

Biological target: chaperonin-containing TCP-1 (CCT), bovine (bovine) (UniProt Q32L40)
Assay: native gel or EMSA

percent of the CCT binding of Hsc70 [%] | percent of the wild-type CCT binding [%] | Substance
64 | – | DnaK_(Hsc70-185–190) (DnaK with T185GNRTI190 exchanged by Hsc70 V189GAERNV195) (from UniProt P0A6Y8 1-638) (natural protein)
– | 6 | Hsc70ΔC_(DnaK189–195) (Hsc70ΔC with V189GAERNV195 substituted with DnaK TGNRTI) (from UniProt P19120 1-554) (domain or fragment)
– | 18 | Hsc70ΔC_(DnaK189–192) (Hsc70ΔC with V189GAE192 changed to DnaK T185GN187) (from UniProt P19120 1-554) (domain or fragment)
